Biological target: HA-AMFR (UniProt Q9UKV5 1-643)
Assay: co-IP

Sequence of HA-AMFR (Q9UKV5 whole entry): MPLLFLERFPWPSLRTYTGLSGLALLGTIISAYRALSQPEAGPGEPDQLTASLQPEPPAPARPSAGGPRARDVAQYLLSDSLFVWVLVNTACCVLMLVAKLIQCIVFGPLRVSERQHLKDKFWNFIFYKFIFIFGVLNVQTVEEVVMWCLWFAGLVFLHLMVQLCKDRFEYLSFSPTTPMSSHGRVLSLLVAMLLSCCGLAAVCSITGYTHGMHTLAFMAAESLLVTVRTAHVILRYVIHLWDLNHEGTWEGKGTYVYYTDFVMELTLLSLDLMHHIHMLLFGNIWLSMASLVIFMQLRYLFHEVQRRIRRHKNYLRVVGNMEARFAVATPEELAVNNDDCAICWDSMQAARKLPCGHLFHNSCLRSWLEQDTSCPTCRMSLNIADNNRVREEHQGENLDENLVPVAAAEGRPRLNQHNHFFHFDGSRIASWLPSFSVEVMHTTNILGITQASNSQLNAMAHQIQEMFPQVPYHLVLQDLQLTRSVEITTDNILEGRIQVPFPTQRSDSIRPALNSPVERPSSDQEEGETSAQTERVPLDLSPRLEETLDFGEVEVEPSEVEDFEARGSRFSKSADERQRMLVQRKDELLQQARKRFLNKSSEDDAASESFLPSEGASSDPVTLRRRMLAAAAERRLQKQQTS

binding result: binds
B1: FAM134B (construct and tag not told for these supplementary panels) (natural protein)
chain: MASPAPPEHAEEGCPAPAAEEQAPPSPPPPQASPAERQQQEEEAQEAGAAEGAGLQVEEAAGRAAAAVTWLLGEPVLWLGCRADELLSWKRPLRSLLGFVAANLLFWFLALTPWRVYHLISVMILGRVIMQIIKDMVLSRTRGAQLWRSLSESWEVINSKPDERPRLSHCIAESWMNFSIFLQEMSLFKQQSPGKFCLLVCSVCTFFTILGSYIPGVILSYLLLLCAFLCPLFKCNDIGQKIYSKIKSVLLKLDFGIGEYINQKKRERSEADKEKSHKDDSELDFSALCPKISLTVAAKELSVSDTDVSEVSWTDNGTFNLSEGYTPQTDTSDDLDRPSEEVFSRDLSDFPSLENGMGTNDEDELSLGLPTELKRKKEQLDSGHRPSKETQSAAGLTLPLNSDQTFHLMSNLAGDVITAAVTAAIKDQLEGVQQALSQAAPIPEEDTDTEEGDDFELLDQSELDQIESELGLTQDQEAEAQQNKKSSGFLSNLLGGH

— publication PMC11541587 (Nature Communications, 2024)
